Results reported in paper PMC4457833, “Effective Optimization of Antibody Affinity by Phage Display Integrated with High-Throughput DNA Synthesis and Sequencing Technologies” (PLoS ONE, 2015).

Target: T1, biotinylated recombinant dimeric ErbB2 ECD-Fc fusion protein (Homo sapiens, UniProt P04626, biotin (EZ-Link NHS-PEG4-Biotin labeling kit))
T1 construct: ErbB2, extracellular domain (ECD); Cloned in the mammalian expression vector pSectag 2A; also called Bio-ECD; source: Expi293, transiently expressed, purified on Protein A, then biotinylated
Assay: SPR; Biacore 3000, 25°C; Bio-ECD (1 μg/ml in PBS) immobilised on SA sensor chip at about 300 RU; antibodies 10 μg/ml in PBS flowed at 30 μl/min, 15 min dissociation; regeneration 50 mM NaOH; triplicate
Settings: both partners purified

Kd: 4.03 nM
koff: 0.000262 s⁻¹
kon: 65000 M⁻¹ s⁻¹
B1: HuA21 scFv-Fc fusion antibody (humanized anti-ErbB2 antibody HuA21, wild type) (scFv, V domains shown)
VH: QVQLVQSGAEVVKPGASVKISCKASGYSFTGYFINWVKQNPGQRLEWIGHISSSYATSTYNQKFKGKATLTVDTSASTAYMELSSLRSEDTAVYYCVRSGNYEEYAMDYWGQGTLVTVSS
VL: DIVLTQSPDSLAVSLGERVTINCKSSQTLLYSNNQKNYLAWYQQKPGQSPKLLISWAFTRKSGVPDRFSGSGSGTDFTLTISSVQAEDVAVYYCQQYSNYPWTFGAGTKLEIK
notes: the HuA21 scFv gene is deposited in GenBank under KP749832; also called HuA21 (wt); wild-type HuA21; source: Expi293, transfected; conditioned medium (screening ELISA); purified by Protein A and Superdex G200 size-exclusion chromatography (SPR)
